Results on 21 molecules are retold here after US20210188980A1 (SHANGHAI EPIMAB BIOTHERAPEUTICS, published 2021).

T1: recombinant human LAG-3-his protein (Novoprotein) (human, UniProt P18627 23-450)
T1 construct: Bought; also called huLAG-3; not shown: His tag
T1 sequence (looked up): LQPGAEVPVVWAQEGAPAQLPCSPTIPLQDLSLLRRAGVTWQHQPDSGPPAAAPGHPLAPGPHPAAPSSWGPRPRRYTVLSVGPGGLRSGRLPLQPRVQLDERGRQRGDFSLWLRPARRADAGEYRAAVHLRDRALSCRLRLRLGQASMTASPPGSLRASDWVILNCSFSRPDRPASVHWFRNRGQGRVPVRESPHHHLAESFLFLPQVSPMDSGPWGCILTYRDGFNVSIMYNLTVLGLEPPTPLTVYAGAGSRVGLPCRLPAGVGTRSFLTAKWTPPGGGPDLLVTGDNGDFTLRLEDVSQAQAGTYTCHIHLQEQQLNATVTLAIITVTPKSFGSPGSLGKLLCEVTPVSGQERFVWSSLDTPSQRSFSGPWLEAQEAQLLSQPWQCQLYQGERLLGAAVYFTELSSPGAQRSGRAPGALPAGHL

B1: HumAb747V-71 (antibody, human IgG1, V domains shown)
VH: EVQLVQSGAEVKKPGATVKLSCTASGFNIKDDYMHWVKQRPEQGLDWIGWIVPRNGNTVYASKFQGKATITADTSTNTAYLELSSLRSEDTAVYYCTVYGDYWGQGTTVTVSS
VL: DIQMTQSPSSLSASVGDRVTITCRASQEISGYLSWLQQKPGGAIKRLIYAASALDSGVPSRFSGSRSGSDYTLTISSLQPEDFADYYCLQYASYPLTFGQGTKLELK
notes: engineered HumAb747-60 variant; human IgG1/kappa constant domains
B2: HumAb747V-72 (antibody, human IgG1, V domains shown)
VH: B1 VH
VL: B1 VL with S56L
notes: as for B1
B3: HumAb747V-70 (antibody, human IgG1, V domains shown)
VH: B1 VH
VL: B1 VL with A53T, S56L
notes: as for B1
B4: HumAb747V-69 (antibody, human IgG1, V domains shown)
VH: B1 VH with R54E
VL: B1 VL with A53T
notes: as for B1
B5: HumAb747V-68 (antibody, human IgG1, V domains shown)
VH: B1 VH with R54E
VL: B1 VL with S56L
notes: as for B1
B6: HumAb747-55 (antibody, human IgG1, V domains shown)
VH: EVQLVQSGAEVKKPGATVKISCKVSDFNIKDDYMHWVQQAPGKGLEWIGWIVPENGNTEYASKFQGRVTITADTSTDTAYLELSSLRSEDTAVYYCTVYGDYWGQGTTVTVSS
VL: B1 VL with A53T, Q79E
notes: humanized mAb747; human IgG1/kappa constant domains
B7: HumAb747-58 (antibody, human IgG1, V domains shown)
VH: B6 VH with I20L, K23T, V24A, Q38K, V68A, D77N
VL: B1 VL with A53T, Q79E
notes: as for B6
B8: HumAb747-57 (antibody, human IgG1, V domains shown)
VH: B6 VH with I20L, K23T, V24A
VL: B1 VL with A53T, Q79E
notes: as for B6
B9: HumAb747-56 (antibody, human IgG1, V domains shown)
VH: B6 VH with I20L, V24A
VL: B1 VL with A53T, Q79E
notes: as for B6
B10: HumAb747V-62 (antibody, human IgG1, V domains shown)
VH: B1 VH with V59M
VL: B1 VL with A53T, S56L
notes: as for B1
B11: HumAb747V-61 (antibody, human IgG1, V domains shown)
VH: B1 VH with G26D, R54E, G56A, V59E
VL: B1 VL with A53T
notes: human IgG1/kappa constant domains
B12: HumAb747V-65 (antibody, human IgG1, V domains shown)
VH: B1 VH with V59M
VL: B1 VL with A53T
notes: as for B1
B13: HumAb747V-66 (antibody, human IgG1, V domains shown)
VH: B1 VH with R54E
VL: B1 VL with A53T, S56L
notes: as for B1
B14: HumAb747V-64 (antibody, human IgG1, V domains shown)
VH: B1 VH with V59M
VL: B1 VL with S56L
notes: as for B1
B15: HumAb747V-63 (antibody, human IgG1, V domains shown)
VH: B1 VH with V59M
VL: B1 VL
notes: as for B1
B16: B3-46-IgG (antibody, V domains shown)
VH: EVQLVQSGAEVKKPGASVKVSCKASGFNIKDDYMHWVRQAPGQGLEWIGWIVPENGLTEYASKFQGRVTITADTSINTAYMELSRLRSDDTAVYYCTVYGDYWGQGTTVTVSS
VL: B1 VL with T22N, G41E, A43T, A51T, A53T, D85T, Q100G, L104V, L106I
notes: as for B11
B17: B3-21-IgG (antibody, V domains shown)
VH: B16 VH with G26D, L57N, Y102V
VL: B1 VL with T22N, S26M, G41E, A43T, A53T, D85T, S93Y, Q100G, L104V, L106I
notes: as for B11
B18: B3-69-IgG (antibody, V domains shown)
VH: B16 VH with L57N, E59H
VL: B1 VL with T22N, G41E, A43T, A50E, A53T, D85T, Q100G, L104V, L106I
notes: as for B11
B19: B3-48-IgG (antibody, V domains shown)
VH: B16 VH with G26D, N28S, L57K
VL: B1 VL with T22N, G41E, A43T, S52M, A53T, D85T, Q100G, L104V, L106I
notes: as for B11
B20: B2-53-IgG (antibody, V domains shown)
VH: B16 VH with L57N, E59V
VL: B1 VL with T22N, G41E, A43T, D85T, Q100G, L104V, L106I
notes: human IgG1/kappa constant domains; also called B82-53
B21: B3-43-IgG (antibody, V domains shown)
VH: B16 VH with R38C, L57N
VL: B1 VL with T22N, G41E, A43T, A53H, D85T, Q100G, L104V, L106I
notes: as for B11

Numbering of substitutions follows the chain as printed.

One assay has as its target T1, recombinant human LAG-3-his protein …. Description: BLI Octet, Ab on AHC sensor, huLAG-3-his; test group 2. The method, then:
(§1) All 9 humanized antibodies (Table 25) and a chimeric antibody having the parental murine VH and VL domains (mAb747c) were ranked by dissociation rate constant (koff). Briefly, antibodies were characterized for affinities and binding kinetics by Octet RED96 biolayer interferometry (Pall FortéBio LLC). Antibodies were captured by Anti-HIgG Fc Capture (AHC) Biosensors (Pall) at a concentration of 100 nM for 30 seconds. Sensors were then dipped into running buffer (1× pH7.2 PBS, 0.05% Tween 20, 0.1% BSA) for 60 seconds to check baseline. Binding was measured by dipping sensors into a single concentration of recombinant human LAG-3-his protein (Novoprotein). Dissociation was followed by dipping sensors into running buffer for 1200 seconds. The association and dissociation curves were fitted to a 1:1 Langmuir binding model using FortéBio Data Analysis software (Pall).
(§2) All 13 humanized antibodies (Table 39) and chimeric anti-LAG-3 antibody mAb747c having the parental murine VH and VL domains were ranked by dissociation rate constant (koff) in the same manner described in Example 9.1 supra. In each test group, the off-rates of antibodies were able to be compared with that of mAb747c. The off-rate ratios were calculated by the off-rate of antibody to that of mAb747c of its group and were compared all together. The lower the ratio was, the higher was the affinity of the antibody.
(Biolayer interferometry detects binding as a change in optical thickness at a sensor tip.)
B1: the dissociation rate constant (koff) (as a rule, the rate constant with which the complex falls apart) came to 0.000292 s⁻¹ and the “off-rate ratio to that of mAb747c” value was 43%.
Regarding B2, the koff is 0.000247 s⁻¹ and the “off-rate ratio to that of mAb747c” value turned out to be 37%.
As to B3, the koff was 0.000273 s⁻¹ and the “off-rate ratio to that of mAb747c” value is 40%.
Consider B4, for which the dissociation rate constant (koff) was determined as 0.000357 s⁻¹ and the “off-rate ratio to that of mAb747c” value stood at 53%.
Consider B5, for which the koff worked out at 0.000295 s⁻¹ and the “off-rate ratio to that of mAb747c” value was 41%.

The next assay shares this target. Description: BLI Octet, Ab on AHC sensor, huLAG-3-his; test group 3. Here is the method: as §1, with “All 18” for “All 9”, “(Table 34)” for “(Table 25)”, “by Octet®RED96” for “by Octet RED96”, “(Pall ForteBio” for “(Pall FortéBio”, “by Anti-hIgG” for “by Anti-HIgG”, “(Pall). In each test group, the off-rates of antibodies were able to be compared with that of mAb747c. The off-rate ratios were calculated by the off-rate of antibody to that of mAb747c of its group and were compared all together. The lower the ratio was, the higher was the affinity of the antibody.” for “(Pall).”
For the molecule B6, the koff amounted to 0.0119 s⁻¹ and the “off-rate ratio to that of mAb747c” value was determined as 972%.
As for B7, the off-rate (koff) was 0.00405 s⁻¹ and the “off-rate ratio to that of mAb747c” value was 331%.
B8: the koff was found to be 0.00411 s⁻¹ and the “off-rate ratio to that of mAb747c” value was 335%.
In the case of B9, the koff came out at 0.00431 s⁻¹ and the “off-rate ratio to that of mAb747c” value was 352%.

The next assay shares this target. Description: BLI Octet, Ab on AHC sensor, huLAG-3-his; test group 1. Here is the method:
as §1, §2
B10: the koff came to 0.00048 s⁻¹ and the “off-rate ratio to that of mAb747c” value is 78%.
Regarding B11, the dissociation rate constant (koff) worked out at 0.000686 s⁻¹ and the “off-rate ratio to that of mAb747c” value was 112%.
With B12, the koff came to 0.000292 s⁻¹ and the “off-rate ratio to that of mAb747c” value is 47%.
As for B13, the off-rate (koff) worked out at 0.000584 s⁻¹ and the “off-rate ratio to that of mAb747c” value came out at 95%.
B14: the off-rate (koff) is 0.00045 s⁻¹ and the “off-rate ratio to that of mAb747c” value came to 73%.
The like results for B15 were, in that order, 0.000522 s⁻¹ and 85%.

For a further assay the target is unchanged. The description is as above. This is another data set of the same source. Here is the method: as §1
The seven Fab clones were converted to full IgG proteins. Briefly, the VH and VL genes were produced synthetically and then cloned into vectors containing coding sequences for the human IgG1 and human kappa constant domains, respectively. The heavy chain and cognate light chain plasmids were co-transfected into HEK 293E cells, individually. After approximately six days of post-transfection cell culture, the supernatants were harvested and subjected to Protein A affinity chromatography. The affinity of purified antibodies was ranked by Octet® RED96 biolayer interferometry (see, Example 9.1, supra).
Turning to B16, the koff stood at 0.00248 s⁻¹ and the “off-rate ratio to that of mAb747c” value worked out at 165%.
On to B17, for which the off-rate constant (koff) was 0.00198 s⁻¹ and the “off-rate ratio to that of mAb747c” value worked out at 132%.
For B18, the koff is 0.00359 s⁻¹ and the “off-rate ratio to that of mAb747c” value turned out to be 239%.
B19: the koff amounted to 0.00285 s⁻¹ and the “off-rate ratio to that of mAb747c” value came to 190%.
The like results for B20 were, in that order, 0.0018 s⁻¹ and 120%.
For the molecule B21, the koff worked out at 0.00588 s⁻¹ and the “off-rate ratio to that of mAb747c” value worked out at 392%.
